Starred links: 1 amine or outer side, 2 acyl side, 3 side chain; linkers in the order of their positions; H or OH if unused. Positions of bridges follow the written chain, without caps; N, C: chain ends. Non-standard residues stand in square brackets, D forms with d. Primed or numbered codes have the meaning given here. PyrS2″ = (S)-3-amino-1-((pent-4-en-1-yloxy)carbonyl)pyrrolidine-3-carboxylic acid (stapling residue), C=CCCCOC(=O)N1CC[C@@](N[*:1])(C(=O)[*:2])C1; B5(5) = 2,2-bis(4-pentenyl)glycine, 2-amino-2-(pent-4-en-1-yl)hept-6-enoic acid (stitching residue), C=CCCCC(CCCC=C)(N[*:1])C(=O)[*:2]; PyrS2 = (S)-3-amino-1-((pent-4-en-1-yloxy)carbonyl)pyrrolidine-3-carboxylic acid, C=CCCCOC(=O)N1CC[C@@](N[*:1])(C(=O)[*:2])C1; SPip2 = 4-amino-1-((pent-4-en-1-yloxy)carbonyl)piperidine-4-carboxylic acid, C=CCCCOC(=O)N1CCC(N[*:1])(C(=O)[*:2])CC1; SPip3 = 4-amino-1-((hex-5-en-1-yloxy)carbonyl)piperidine-4-carboxylic acid, C=CCCCCOC(=O)N1CCC(N[*:1])(C(=O)[*:2])CC1; SPip1 = 4-amino-1-((but-3-en-1-yloxy)carbonyl)piperidine-4-carboxylic acid, C=CCCOC(=O)N1CCC(N[*:1])(C(=O)[*:2])CC1; B5(25) = 2-amino-2-(pent-4-en-1-yl)hept-6-enoic acid (stitching residue), C=CCCCC(CCCC=C)(N[*:1])C(=O)[*:2]; B5 = 2-amino-2-(pent-4-en-1-yl)hept-6-enoic acid, C=CCCCC(CCCC=C)(N[*:1])C(=O)[*:2]; Phe(3-COOH) = N[C@@H](Cc1cccc(C(=O)O)c1)C(=O)O; Phe(2-CF3) = N[C@@H](Cc1ccccc1C(F)(F)F)C(=O)O; Bta = N[C@@H](Cc1csc2ccccc12)C(=O)O; αAllylPro = C=CC[C@@]1(C(=O)O)CCCN1; tBuAla = CC(C)(C)C[C@H](N)C(=O)O; 3Thi = N[C@@H](Cc1ccsc1)C(=O)O; R5 = C=CCCC[C@@](C)(N)C(=O)O; Aib = CC(C)(N)C(=O)O
Legend:
[1] = molecular target: B-cat-Halo (beta-catenin HaloTag NanoBRET construct expressed in HEK293 cells) (UniProt P35222); assay: NanoBRET in HEK293 cells, Bcat-Halo / TCF4-Luc (competitor TCF4-Luc); absolute IC50
[2] = molecular target: full-length beta-Catenin (Uniprot ID P35222) (Homo sapiens (Human)) (UniProt P35222); assay: fluorescence polarization competition; full-length beta-catenin, competitor 5FAM-TCF4(10-53) probe
Target sequence in this assay (P35222 2-781 limits assumed): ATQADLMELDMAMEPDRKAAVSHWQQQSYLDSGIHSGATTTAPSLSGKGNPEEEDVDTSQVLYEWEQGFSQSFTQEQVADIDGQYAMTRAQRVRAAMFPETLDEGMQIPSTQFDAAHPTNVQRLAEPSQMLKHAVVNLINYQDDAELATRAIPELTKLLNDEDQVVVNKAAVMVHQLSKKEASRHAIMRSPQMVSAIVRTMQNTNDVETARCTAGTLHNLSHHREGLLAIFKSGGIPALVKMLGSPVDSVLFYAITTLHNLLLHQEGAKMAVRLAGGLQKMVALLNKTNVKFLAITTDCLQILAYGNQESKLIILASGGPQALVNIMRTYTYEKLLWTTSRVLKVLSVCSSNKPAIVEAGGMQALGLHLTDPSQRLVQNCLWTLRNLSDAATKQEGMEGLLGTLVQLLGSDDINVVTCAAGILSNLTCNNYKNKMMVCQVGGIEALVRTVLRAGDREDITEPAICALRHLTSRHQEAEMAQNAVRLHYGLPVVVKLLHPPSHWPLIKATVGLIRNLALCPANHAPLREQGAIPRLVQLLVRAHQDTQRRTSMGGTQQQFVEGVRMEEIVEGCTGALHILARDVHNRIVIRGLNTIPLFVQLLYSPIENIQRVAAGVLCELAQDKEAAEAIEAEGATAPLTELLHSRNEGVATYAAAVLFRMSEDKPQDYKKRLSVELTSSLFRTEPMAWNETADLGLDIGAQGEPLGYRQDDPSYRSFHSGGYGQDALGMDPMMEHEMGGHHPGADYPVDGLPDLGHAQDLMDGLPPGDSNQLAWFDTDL

[3] = molecular target: full-length beta-Catenin (Uniprot ID P35222) (Homo sapiens (Human)) (UniProt P35222); assay: fluorescence polarization competition; full-length beta-catenin, 5FAM-TCF4 10-53 probe as competitor
Target sequence in this assay (P35222 whole entry, one chain of several): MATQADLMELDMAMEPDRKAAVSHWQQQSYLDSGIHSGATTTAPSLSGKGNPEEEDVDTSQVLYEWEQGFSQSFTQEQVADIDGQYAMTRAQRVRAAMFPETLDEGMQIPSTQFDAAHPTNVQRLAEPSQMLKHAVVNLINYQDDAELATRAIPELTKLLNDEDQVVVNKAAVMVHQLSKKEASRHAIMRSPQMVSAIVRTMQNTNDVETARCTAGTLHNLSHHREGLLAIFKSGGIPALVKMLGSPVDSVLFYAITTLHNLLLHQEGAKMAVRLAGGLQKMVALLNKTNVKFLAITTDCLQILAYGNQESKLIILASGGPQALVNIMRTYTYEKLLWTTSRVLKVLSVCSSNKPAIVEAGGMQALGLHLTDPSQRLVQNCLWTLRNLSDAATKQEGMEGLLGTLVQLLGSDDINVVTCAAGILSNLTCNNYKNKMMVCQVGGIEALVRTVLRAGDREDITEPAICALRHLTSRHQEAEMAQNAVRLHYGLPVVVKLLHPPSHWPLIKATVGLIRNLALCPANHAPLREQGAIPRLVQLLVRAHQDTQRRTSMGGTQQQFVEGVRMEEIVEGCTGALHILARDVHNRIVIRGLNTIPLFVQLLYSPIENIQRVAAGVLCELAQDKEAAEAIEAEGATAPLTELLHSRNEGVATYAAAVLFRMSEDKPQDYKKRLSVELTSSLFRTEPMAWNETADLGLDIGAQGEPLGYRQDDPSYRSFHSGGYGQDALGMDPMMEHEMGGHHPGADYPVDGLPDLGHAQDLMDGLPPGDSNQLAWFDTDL

Sequence of B-cat-Halo (beta-catenin HaloTag NanoBRET construct expressed in HEK293 cells) (P35222 whole entry): as the sequence (P35222 whole entry, one chain of several) above

Row | Binder | IC50 [1] [nM] | IC50 [2] [nM] | IC50 [3] [nM]
1 | Ac-[αAllylPro]D[tBuAla][B5(5)]NT[Aib]AFT[PyrS2][3Thi][Bta]Q-NH2 (staple 1-4, 4-11) [I-2409] | 50000 | 397 | 
2 | Ac-[αAllylPro]D[tBuAla][B5(5)]NT[Aib]AFH[PyrS2″][3Thi][Bta]Q-NH2 (staple 1-4, 4-11) [I-2410] | > 20000 | 304 | 
3 | Ac-[αAllylPro]D[tBuAla][B5(5)]NT[Aib]AFN[PyrS2″][3Thi][Bta]H-NH2 (staple 1-4, 4-11) [I-2414] | > 20000 | 7 | 
4 | Ac-[αAllylPro]D[tBuAla][B5(5)]NT[Aib]AFN[PyrS2″][3Thi][Bta]N-NH2 (staple 1-4, 4-11) [I-2415] | > 20000 | 147 | 
5 | Ac-[αAllylPro]D[tBuAla][B5(5)]NT[Aib]AFN[PyrS2″][3Thi][Bta]T-NH2 (staple 1-4, 4-11) [I-2416] | > 20000 | 133 | 
6 | Ac-[R5]AD[tBuAla][B5(25)]D[Phe(3-COOH)]AAFL[PyrS2″][Phe(2-CF3)][Bta]Q-NH2 (staple 1-5, 5-12 (inferred); also: staple -CH=CH- reduced to -CH2-CH2-) [I-2574] |  |  | 2960
7 | Ac-P[R5]ED[tBuAla][B5(25)]D[Phe(3-COOH)]AAFL[PyrS2″][Phe(2-CF3)][Bta]Q-NH2 (staple 6-13, 2-6 (inferred); not fully specified; printed as Ac-Pro-R5-Glu-Asp-Npg-B5-Asp-3COOHF-Ala-Ala-Phe-Leu-PyrS2-2F3MeF-BztA-Gln-NH2) [I-2575] |  |  | 8160
8 | Ac-[αAllylPro]D[tBuAla][B5]D[Phe(3-COOH)]QAFL[SPip1][Phe(2-CF3)][Bta]A-NH2 (staple 1-4, 4-11; not fully specified; printed as Ac-PL3-Asp-Npg-B5-Asp-3COOHF-Gln-Ala-Phe-Leu-SPip1-2F3MeF-BztA-Ala-NH2) [I-2584] |  |  | 1840
9 | Ac-[αAllylPro]D[tBuAla][B5]D[Phe(3-COOH)]QAFL[SPip2][Phe(2-CF3)][Bta]A-NH2 (staple 1-4, 4-11; not fully specified; printed as Ac-PL3-Asp-Npg-B5-Asp-3COOHF-Gln-Ala-Phe-Leu-SPip2-2F3MeF-BztA-Ala-NH2; also: earlier-eluting staple isomer composition) [I-2585] |  |  | 452
10 | Ac-[αAllylPro]D[tBuAla][B5]D[Phe(3-COOH)]QAFL[SPip2][Phe(2-CF3)][Bta]A-NH2 (staple 1-4, 4-11; not fully specified; printed as Ac-PL3-Asp-Npg-B5-Asp-3COOHF-Gln-Ala-Phe-Leu-SPip2-2F3MeF-BztA-Ala-NH2; also: later-eluting staple isomer composition) [I-2586] |  |  | 345
11 | Ac-[αAllylPro]D[tBuAla][B5]D[Phe(3-COOH)]QAFL[SPip3][Phe(2-CF3)][Bta]A-NH2 (staple 1-4, 4-11; not fully specified; printed as Ac-PL3-Asp-Npg-B5-Asp-3COOHF-Gln-Ala-Phe-Leu-SPip3-2F3MeF-BztA-Ala-NH2) [I-2587] |  |  | 273

Reference: US20240116985A1, “STAPLED PEPTIDES AND METHODS THEREOF” (priority 2020, published 2024)
